Laboratory results reported in publication PMC9463131, “SLITRK1-mediated noradrenergic projection suppression in the neonatal prefrontal cortex” (Communications Biology, 2022).

How the values were obtained:
Assay in all cases: BLI
SLITRK1-S330A-Fc [1] = target: T1, SLITRK1-S330A-Fc (human, UniProt Q96PX8 18-616, S330A)
T1 sequence: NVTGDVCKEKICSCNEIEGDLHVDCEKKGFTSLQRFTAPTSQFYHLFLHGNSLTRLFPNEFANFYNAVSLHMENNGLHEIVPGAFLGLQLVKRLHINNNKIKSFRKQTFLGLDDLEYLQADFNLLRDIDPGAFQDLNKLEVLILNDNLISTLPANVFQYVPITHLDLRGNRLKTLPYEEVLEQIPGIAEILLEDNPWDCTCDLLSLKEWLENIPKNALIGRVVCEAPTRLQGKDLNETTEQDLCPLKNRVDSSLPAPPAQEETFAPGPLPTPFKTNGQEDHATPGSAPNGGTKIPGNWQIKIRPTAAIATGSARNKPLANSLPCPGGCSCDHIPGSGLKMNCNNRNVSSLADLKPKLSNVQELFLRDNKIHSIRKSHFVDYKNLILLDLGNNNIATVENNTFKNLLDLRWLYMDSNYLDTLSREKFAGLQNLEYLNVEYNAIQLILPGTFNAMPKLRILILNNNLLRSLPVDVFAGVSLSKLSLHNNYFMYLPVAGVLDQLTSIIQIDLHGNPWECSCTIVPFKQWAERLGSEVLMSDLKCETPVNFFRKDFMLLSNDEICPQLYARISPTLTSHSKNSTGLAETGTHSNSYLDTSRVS

SLITRK1-A444S-Fc [2] = target: T2, SLITRK1-A444S-Fc (human, UniProt Q96PX8 18-616, A444S)
T2 sequence: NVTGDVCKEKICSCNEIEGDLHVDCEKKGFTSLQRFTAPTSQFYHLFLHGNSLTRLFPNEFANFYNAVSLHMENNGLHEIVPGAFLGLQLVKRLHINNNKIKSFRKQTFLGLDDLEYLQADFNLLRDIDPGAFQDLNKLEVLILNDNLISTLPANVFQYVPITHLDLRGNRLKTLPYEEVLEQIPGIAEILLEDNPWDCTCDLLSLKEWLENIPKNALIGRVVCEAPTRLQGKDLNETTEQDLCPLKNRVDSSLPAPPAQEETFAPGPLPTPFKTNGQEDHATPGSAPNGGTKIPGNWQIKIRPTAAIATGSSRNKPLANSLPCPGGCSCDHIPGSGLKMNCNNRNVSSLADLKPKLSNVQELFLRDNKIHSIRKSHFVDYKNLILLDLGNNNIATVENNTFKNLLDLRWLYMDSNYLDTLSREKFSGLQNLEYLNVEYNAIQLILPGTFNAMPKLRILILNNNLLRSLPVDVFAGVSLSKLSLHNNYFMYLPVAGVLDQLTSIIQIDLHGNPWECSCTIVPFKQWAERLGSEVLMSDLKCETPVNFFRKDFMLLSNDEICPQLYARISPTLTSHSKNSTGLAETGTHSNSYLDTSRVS

SLITRK1-S330A-Fc [3] = target: T1, SLITRK1-S330A-Fc; remark: listed apart in the source
SLITRK1-A444S-Fc [4] = target: T2, SLITRK1-A444S-Fc; remark: listed apart in the source

koff (SLITRK1-S330A-Fc [1]): 0.00084 s⁻¹
koff (SLITRK1-A444S-Fc [2]): 0.0008 s⁻¹
Kd (SLITRK1-S330A-Fc [3]): 5.83 nM
Kd (SLITRK1-A444S-Fc [4]): 4.69 nM
B1: L1CAM ECD-His6 (777-NC-100, R&D Systems) (domain or fragment)
chain: IQIPEEYEGHHVMEPPVITEQSPRRLVVFPTDDISLKCEASGKPEVQFRWTRDGVHFKPKEELGVTVYQSPHSGSFTITGNNSNFAQRFQGIYRCFASNKLGTAMSHEIRLMAEGAPKWPKETVKPVEVEEGESVVLPCNPPPSAEPLRIYWMNSKILHIKQDERVTMGQNGNLYFANVLTSDNHSDYICHAHFPGTRTIIQKEPIDLRVKATNSMIDRKPRLLFPTNSSSHLVALQGQPLVLECIAEGFPTPTIKWLRPSGPMPADRVTYQNHNKTLQLLKVGEEDDGEYRCLAENSLGSARHAYYVTVEAAPYWLHKPQSHLYGPGETARLDCQVQGRPQPEVTWRINGIPVEELAKDQKYRIQRGALILSNVQPSDTMVTQCEARNRHGLLLANAYIYVVQLPAKILTADNQTYMAVQGSTAYLLCKAFGAPVPSVQWLDEDGTTVLQDERFFPYANGTLGIRDLQANDTGRYFCLAANDQNNVTIMANLKVKDATQITQGPRSTIEKKGSRVTFTCQASFDPSLQPSITWRGDGRDLQELGDSDKYFIEDGRLVIHSLDYSDQGNYSCVASTELDVVESRAQLLVVGSPGPVPRLVLSDLHLLTQSQVRVSWSPAEDHNAPIEKYDIEFEDKEMAPEKWYSLGKVPGNQTSTTLKLSPYVHYTFRVTAINKYGPGEPSPVSETVVTPEAAPEKNPVDVKGEGNETTNMVITWKPLRWMDWNAPQVQYRVQWRPQGTRGPWQEQIVSDPFLVVSNTSTFVPYEIKVQAVNSQGKGPEPQVTIGYSGEDYPQAIPELEGIEILNSSAVLVKWRPVDLAQVKGHLRGYNVTYWREGSQRKHSKRHIHKDHVVVPANTTSVILSGLRPYSSYHLEVQAFNGRGSGPASEFTFSTPEGVPGHPEALHLECQSNTSLLLRWQPPLSHNGVLTGYVLSYHPLDEGGKGQLSFNLRDPELRTHNLTDLSPHLRYRFQLQATTKEGPGEAIVREGGTMALSGISDFGNISATAGENYSVVSWVPKEGQCNFRFHILFKALGEEKGGASLSPQYVSYNQSSYTQWDLQPDTDYEIHLFKERMFRHQMAVKTNGTGRVRLPPAGFATE
